Experimental data published in the RNAGym collection of RNA variant scans (doi:10.7554/elife.80360).

B1: CPEB3 Ribozyme (parent)
chain: GGGGGCCACAGCAGAAGCGUUCACGUCGCGGCCCCUGUCAGAUUCUGGUGAAUCUGCGAAUUCUGCUGU

Variants of: B1
Experiment: self-cleavage, relative activity (ratio to wild type); higher = more cleavage; co-transcriptional

Variant | self-cleavage
GGGGGCCACAGCAGAAGCGUUCACGUCGCGGCCCCUGUCAGAUUCUGGUGAAUUUGCGAAUUUUGCUGU [C54U C63U] | 1.02
GGGGGCCACAGCAGAAGCGUUCACGUCGCGGCCCCUGUCAGAUUCUGGUGAAUCAGCGAAUUCUGCUGU [U55A] | 0.96
GGGGGCCACAGCAGAAGCGUUCACGUCGCGGCCCCUGUCAGAUUCUGGUGAAGAUGCGAAUUCUGCUGU [U53G C54A] | 0.873
GGGGGCCACAGCAGAAGCGUUCACGUCGCGGCCCCUGUCAGAUUCUGGUGAAUUUGCGCAUUCUGCUGU [C54U A59C] | 0.678
GGGGGCCACAGCAGAAGCGUUCACGUCGCGGCCCCUGUCAGAUUCUGGUGAAUGUGCGAAUUAUGCUGU [C54G C63A] | 0.543
GGGGGCCACAGCAGAAGCGUUCACGUCGCGGCCCCUGUCAGAUUCUGGUGAAUAUGCGAAUUCGGCUGU [C54A U64G] | 0.471
GGGGGCCACAGCAGAAGCGUUCACGUCGCGGCCCCUGUCAGAUUCUGGUGAAGCUGCGAAUUCUGCCGU [U53G U67C] | 0.901
GGGGGCCACAGCAGAAGCGUUCACGUCGCGGCCCCUGUCAGAUUCUGGUGAAGCUGCGAAUUCUGCGGU [U53G U67G] | 0.894
GGGGGCCACAGCAGAAGCGUUCACGUCGCGGCCCCUGUCAGAUUCUGGUGAAGCUGCGAAUUCUGCAGU [U53G U67A] | 0.779
GGGGGCCACAGCAGAAGCGUUCACGUCGCGGCCCCUGUCAGAUUCUGGUGAACCUGCGAAUUUUGCUGU [U53C C63U] | 0.786
GGGGGCCACAGCAGAAGCGUUCACGUCGCGGCCCCUGUCAGAUUCUGGUGAACCUGCUAAUUCUGCUGU [U53C G58U] | 0.965
GGGGGCCACAGCAGAAGCGUUCACGUCGCGGCCCCUGUCAGAUUCUGGUGAAUGUGCGAAUUCUGCUUU [C54G G68U] | 0.993
GGGGGCCACAGCAGAAGCGUUCACGUCGCGGCCCCUGUCAGAUUCUGGUGAAGCUGCGUAUUCUGCUGU [U53G A59U] | 0.576
GGGGGCCACAGCAGAAGCGUUCACGUCGCGGCCCCUGUCAGAUUCUGGUGAACUUGCGAAUUCUGCUGU [U53C C54U] | 0.819
GGGGGCCACAGCAGAAGCGUUCACGUCGCGGCCCCUGUCAGAUUCUGGUGAACCUGCGAAUUCUGUUGU [U53C C66U] | 0.801
GGGGGCCACAGCAGAAGCGUUCACGUCGCGGCCCCUGUCAGAUUCUGGUGAACCUGCGAAUUCUGAUGU [U53C C66A] | 0.386
GGGGGCCACAGCAGAAGCGUUCACGUCGCGGCCCCUGUCAGAUUCUGGUGAAUAUGCGAAUUCUGCUUU [C54A G68U] | 0.963
GGGGGCCACAGCAGAAGCGUUCACGUCGCGGCCCCUGUCAGAUUCUGGUGAAUAUGCGAAUUCUGCUCU [C54A G68C] | 0.942
GGGGGCCACAGCAGAAGCGUUCACGUCGCGGCCCCUGUCAGAUUCUGGUGAACCUGCGAAUUCUGCGGU [U53C U67G] | 0.822
GGGGGCCACAGCAGAAGCGUUCACGUCGCGGCCCCUGUCAGAUUCUGGUGAACCUGCGAAUUCUGCAGU [U53C U67A] | 0.793

Variant | self-cleavage
GGGGGCCACAGCAGAAGCGUUCACGUCGCGGCCCCUGUCAGAUUCUGGUGAACCUGCGAAUUCUGCCGU [U53C U67C] | 0.872
GGGGGCCACAGCAGAAGCGUUCACGUCGCGGCCCCUGUCAGAUUCUGGUGAAUGUGCGAAGUCUGCUGU [C54G U61G] | 0.436
GGGGGCCACAGCAGAAGCGUUCACGUCGCGGCCCCUGUCAGAUUCUGGUGAAUGUGCGAAAUCUGCUGU [C54G U61A] | 0.569
GGGGGCCACAGCAGAAGCGUUCACGUCGCGGCCCCUGUCAGAUUCUGGUGAAUGUGCGAAUGCUGCUGU [C54G U62G] | 0.609
GGGGGCCACAGCAGAAGCGUUCACGUCGCGGCCCCUGUCAGAUUCUGGUGAAUGUGCGAAUCCUGCUGU [C54G U62C] | 0.483
GGGGGCCACAGCAGAAGCGUUCACGUCGCGGCCCCUGUCAGAUUCUGGUGAAGCUGCAAAUUCUGCUGU [U53G G58A] | 0.818
GGGGGCCACAGCAGAAGCGUUCACGUCGCGGCCCCUGUCAGAUUCUGGUGAAUAUGCGACUUCUGCUGU [C54A A60C] | 0.272
GGGGGCCACAGCAGAAGCGUUCACGUCGCGGCCCCUGUCAGAUUCUGGUGAAUAUGCGAAUACUGCUGU [C54A U62A] | 0.546
GGGGGCCACAGCAGAAGCGUUCACGUCGCGGCCCCUGUCAGAUUCUGGUGAACCUGCGAAUCCUGCUGU [U53C U62C] | 0.513
GGGGGCCACAGCAGAAGCGUUCACGUCGCGGCCCCUGUCAGAUUCUGGUGAAUGUGUGAAUUCUGCUGU [C54G C57U] | 0.392
GGGGGCCACAGCAGAAGCGUUCACGUCGCGGCCCCUGUCAGAUUCUGGUGAAUAUCCGAAUUCUGCUGU [C54A G56C] | 0.431
GGGGGCCACAGCAGAAGCGUUCACGUCGCGGCCCCUGUCAGAUUCUGGUGAAUGAGCGAAUUCUGCUGU [C54G U55A] | 0.745
GGGGGCCACAGCAGAAGCGUUCACGUCGCGGCCCCUGUCAGAUUCUGGUGAAUGGGCGAAUUCUGCUGU [C54G U55G] | 0.407
GGGGGCCACAGCAGAAGCGUUCACGUCGCGGCCCCUGUCAGAUUCUGGUGAACCUUCGAAUUCUGCUGU [U53C G56U] | 0.399
GGGGGCCACAGCAGAAGCGUUCACGUCGCGGCCCCUGUCAGAUUCUGGUGAAUGUGCAAAUUCUGCUGU [C54G G58A] | 0.849
GGGGGCCACAGCAGAAGCGUUCACGUCGCGGCCCCUGUCAGAUUCUGGUGAAUGUGCGAAUUCUCCUGU [C54G G65C] | 0.503
GGGGGCCACAGCAGAAGCGUUCACGUCGCGGCCCCUGUCAGAUUCUGGUGAAUAUGCGAAUUCUCCUGU [C54A G65C] | 0.514
GGGGGCCACAGCAGAAGCGUUCACGUCGCGGCCCCUGUCAGAUUCUGGUGAAUUUGCGAAUUCCGCUGU [C54U U64C] | 0.92
GGGGGCCACAGCAGAAGCGUUCACGUCGCGGCCCCUGUCAGAUUCUGGUGAAUUUGCGAAUUCAGCUGU [C54U U64A] | 0.905
